Experiment: yeast display, Sf9 membrane polyspecificity reagent, FACS + sequencing; frameworks hold sequencing errors
In short: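 After 36–48 hours of galactose induction, yeast (Saccharomyces cerevisiae BJ5465) displaying a synthetic nanobody library were stained at 4 °C for 1 hour with 10% biotinylated, detergent-solubilized Sf9 membrane reagent. Streptavidin microbeads enriched the stained cells before FACS sorting into low and high (top ~1%) gates on anti-HA and streptavidin fluorescence. Each clone's polyreactivity label reflects its gate of origin.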

Row | Sequence | polyreactivity (PSR sort gate)
1 | QVQLVESGGGLVQAGGSLRLSCAASGNIFLYYAMGWYIPAPGKEREFVSDIDSSGASTYYADSVKGRFTISRDNAKNTVYLQMNSLKPEDTAVYYCAAEFHWWYAGYDYGYWGQGTQVTVSS | low polyreactivity
2 | QVQLVESGGGLVQAGGSLRLSCAASGNIFLYYAMGWYRQAPGKERELVADIDASGASTYYADSVKGRFTIARDNAKKTVYLQLNSLTPEDTAVYYCAAEFHWWYAGYDYGYWGQGTQVTVSS | low polyreactivity
3 | QVQLVESGGGLVQAGGSLRLSCAASGNIFNEYAMGWYRQAPGKERELVAAITWSAGSTYYADSVKGRFTISRDNAKNTVYLQMNSLKPEDTAVYYCNAEYTWHRGYDYWGQGTQVTVSS | low polyreactivity
4 | QVQLVESGGGLVQAGGSLRLSCAASGNIFPAYAMGWYRPAPGKERELVATISRRGGGTYYADSVKGRFTISRDNAKNTVYLQMNSLKPEDTAVYYCNGAGWTSAYDYWGQGTQVTVSS | low polyreactivity
5 | QVQLVESGGGLVQAGGSLRLSCAASGNIFPGYAMGWYRQAPGKERELVAGISGSGGRTYYADSVKGRFTISRDNAKITVYLQMNSLKPEDSAVYYCAAEFKYYYRFEYDYWGQGTQVTVSS | low polyreactivity
6 | QVQLVESGGGLVQAGGSLRLSCAASGNIFPRYAMGWYRQATGKERELVAAITWRTSSTYYADSVKGRFTISRDNAKNTVYLQMNSLKPEDTAVYYCAKTSSRIAGEYWGQGTQVTVSS | low polyreactivity
7 | QVQLVESGGGLVQAGGSLRLSCAASGNIFQKYAMGWYRQAPGKERELVAAIRRGDRTYADSVKGRFTISRDNAKNTVYLQMISLKPEDTAVYYCAAPQVWWGYYTRGVDYWGQGTQVTVSS | low polyreactivity
8 | QVQLVESGGGLVQAGGSLRLSCAASGNIFRPYTMGWNRQEPGKERELVARISSGGSTNYADSVKGRFTISRDNAKNTVYFQMNSLKPEDTAVYYCAKRYGTVHSRYGYWGQGTQVTVSS | high polyreactivity
9 | QVQLVESGGGLVQAGGSLRLSCAASGNIFRPYTMGWYRQAPGKERELVARISSGGSTNYADSVKGRFTISRDNAKNTVNLQMNSLKPEDTAVYYCAKRYGTVHSRYGYWGQGTQVTVSS | high polyreactivity
10 | QVQLVESGGGLVQAGGSLRLSCAASGNIFRTYAMGWYRQAPGKERELVAAISRGGRTYYADSVKGRFTISRDNAKNSVYLQMNSLKPVDTAVYYCNVQPDRISRYDYWGQGTQVTVSS | high polyreactivity
11 | QVQLVESGGGLVQAGGSLRLSCAASGNIFRYYAMGWYRQSPGKERELVAAITRSGGSTYADSVKGRFTISRDNAKNTVYLQMNSLKPEDTAVYYCAAVGYRYFTIYDYWGQGTQVTVSS | low polyreactivity
12 | QVQLVESGGGLVQAGGSLRLSCAASGNIFSDNAMGWYRQAPGKERELVAAITASTSDTYYADSVKGRFTISRDNAKNSVYLQMNSLKPEDTAVYYCAADSRGFQLFDYWGQGTQVTVSS | low polyreactivity
13 | QVQLVESGGGLVQAGGSLRLSCAASGNIFSFYAMGWNRPAPGKERELVAAINWSGGDTYYADSVKGRFTISRDNAKNTVYLQMNSLKPEDTAVYYCAAEYYYQYYPGGYDYWGQGTQVTVSS | high polyreactivity
14 | QVQLVESGGGLVQAGGSLRLSCAASGNIFSSNAMGWYRHAPGKEREVVAAITRSGGSTYYADSVKGRFTISRDNAKNTVYLQMNSLKPEDTAVYYCAAGKPRSKYWYDYWGQGTQVTVSS | high polyreactivity
15 | QVQLVESGGGLVQAGGSLRLSCAASGNIFSSNAMGWYRQAPGKERELVAAISASGGNTYYADSVKGRFTISRDNAKNTVYLQINSLKPEDTAVYYCNAYRGGYLRRGYYYWGQGSQVTVSS | high polyreactivity
16 | QVQLVESGGGLVQAGGSLRLSCAASGNIFSTYAMGWYRQAPGKERELVAAISKSGGRTYYADSVKGRFTISRDNAKNTVYLQMNSLKPEDTAVYYCNKRYQHGISFGYGYWGQGTQVTVSS | high polyreactivity
17 | QVQLVESGGGLVQAGGSLRLSCAASGNIFSWNTMGWYRQAPGKERELVAAITYRGTRTFYADSVKRRFTISRDNAKNTVYLQMNSLKPEDTEVYYCAATRYAPYRRYYYWGQGTQVTVSS | high polyreactivity
18 | QVQLVESGGGLVQAGGSLRLSCAASGNIFTFNAMGWYRQAPGKERELVAAIRSGGSTNYADSVKGRFTISRDNAKNTVYLQMNSLKPEDTAVYYCAAKRYVQGYVYRYGYWGQGTQVTVSS | high polyreactivity
19 | QVQLVESGGGLVQAGGSLRLSCAASGNIFTSYAMGWYRQAPGKERELVAAISSGGRTSYADSVKGRFTISRDNAKNTVYLEMNSLKPEDNAVYYCAAYYRRWQREYYYWGQGTKVTVSS | high polyreactivity
20 | QVQLVESGGGLVQAGGSLRLSCAASGNIFTYYVRGWYRQEPGKERELVAAISRRGGSTYYADSVKGRFTISRDFAKNTVYLQMNSLKPEDTAVYYCAKKYPRDMDYWGQGTQVTVSS | high polyreactivity
21 | QVQLVESGGGLVQAGGSLRLSCAASGNIFVFYVMGWYRPAPGKERELVASISSTGNTYYADSVKGRFTISRDNAKNTVYLQMNSLKPEDTAVYYCNADPIFVYSSYNYWGQGTQVTVSS | low polyreactivity

Row | Sequence | polyreactivity (PSR sort gate)
22 | QVQLVESGGGLVQAGGSLRLSCAASGNIFVNYAMGWYRQAPGKERELVASINYNGGNTYYADSVKGRFTISRDNAKNTVYLQMNSLKPEDTAVYYCAKDGGGLLRWYTDEYDYWGQGTQVNVSS | low polyreactivity
23 | QVQLVESGGGLVQAGGSLRLSCAASGNIFVSYDLGWYRQAPGKERELVAAISWRGGSTYYADSVKGRFTNSRDNAKNTVFLKMNSLKPEDTAVYYCSVDDWLDWLFADFGYWGQGTQVTVSS | low polyreactivity
24 | QVQLVESGGGLVQAGGSLRLSCAASGNIFVYNAMGWYRQAPGKERELVAAISWTGGSTYYADSVKGRFTISRDNAKNTVYLQMNSLKPEDTAVYYCAKSFGIWHARWLTYDYWGQGTQVTVSS | low polyreactivity
25 | QVQLVESGGGLVQAGGSLRLSCAASGNIFYINAMGWYRQAPGKERELVAAISSGGRTNYADSVKGRFTISRDNAKNTVYLQMNSLKPEDTAVYYCGAEGPEIKYYYWGQGTQVTVSL | low polyreactivity
26 | QVQLVESGGGLVQAGGSLRLSCAASGNIFYINTMGWYRQAPGKERELVAAIDASDGSTYYADSVKGRFTISRDNAKNSVYLQMYSLKPEDTAVYYCASRRGYDSVYYFYTLWYYYWGQGTQVTVSS | low polyreactivity
27 | QVQLVESGGGLVQAGGSLRLSCAASGNIFYQYAMGWYRQAPGKDREFVAAISISGTSTYADSVKGRFTISRDNAKNTVYLQMNSLKPEDTAVYWGQGTQVTVSS | low polyreactivity
28 | QVQLVESGGGLVQAGGSLRLSCAASGNIFYRYAMGWYRQAPGKERELVAAISGNSGNTYYADSVKGRFTISRDIAKNTVYLQMNSLKPEDTAVYYCAAERRAFGHYSWGQGTQVTVSS | high polyreactivity
29 | QVQLVESGGGLVQAGGSLRLSCAASGNIFYVYAMGWYRQAPGKERELVATITWRGGNTYYADSVKGRFTISRDNAKNTVDLQMNSLTPEDTAVYYCAAYVGYTRAYIGQFYAYDYWGQGTQVTVSS | low polyreactivity
30 | QVQLVESGGGLVQAGGSLRLSCAASGNILASNGMGLYRQAPGKERELVAAITYSGGSTYYADSVKGRFTISRDNAKNTVYLQMNSLKPEDTAVYDCAARYYYGRRYDYWGQGTQVTVSS | low polyreactivity
31 | QVQLVESGGGLVQAGGSLRLSCAASGNILAWYAMGWYRQAPGKERELVADISSRGGSTYYADSVKRRFTISRDNAKYTVYLQMKSLKPEDTAVYYCAAVWYWNQDYEYWGQGTQVTVSS | low polyreactivity
32 | QVQLVESGGGLVQAGGSLRLSCAASGNILHYYTMGLYRQAPGKETELVARINYSTGSTYYADSVKGRFTISRDNAKNTVYLQMNSLKPEDTAVYYCAAEKERDEEYDYWGQGTQVTVSS | low polyreactivity
33 | QVQLVESGGGLVQAGGSLRLSCAASGNILIGNVMGWYRQAPGKERELVAAITSGGDTYYADSVKGRFTISRDNAKNTVYLQMNSLKPEDTAVYYCNAYYYFWGQGTQVTVSS | low polyreactivity
34 | QVQLVESGGGLVQAGGSLRLSCAASGNILRYAMGWYRQAPGKERELVARISWRGGSTYYADSVKGRFTISRDNAKNTVYLQMNSLKPEDTAVYYCNKAYLGGGWQKTYDYWGQGTQVTVSS | high polyreactivity
35 | QVQLVESGGGLVQAGGSLRLSCAASGNILYANAMGWYRQAPGKERELVATINVSADSTYADSVKGRFTISRDNAKNTVYLQMNRLNPEDTAVYYCNAYGLYEKWGPWTVPYYYWGQVTQVTVSS | low polyreactivity
36 | QVQLVESGGGLVQAGGSLRLSCAASGNILYDNAMGSYRQAPGKERELVAAIDWSGGSTYYADSVKGRFTISRDNAKNTVYLQMNSLKPEDTAVYYCAAESYIGKYGSYDYWGLGTQVTVSS | low polyreactivity
37 | QVQLVESGGGLVQAGGSLRLSCAASGNILYFYDMGRYRQAPGKERELVAVITGGGGSTYYADSVKGRYTISRDNAKNTVYLQMNRLKPEDTAVYYWAALPWFPDEEYDYWGHGTQVTVSS | high polyreactivity
38 | QVQLVESGGGLVQAGGSLRLSCAASGNISWYNAMGWYRQAPGKERELVAAITSSGSGTYYADSVKGRFTISRDNAKHTVYLQMNSLKPEDTAVYYCIADNAIRYDYWGQGTQVTVSS | high polyreactivity
39 | QVQLVESGGGLVQAGGSLRLSCAASGNIVGSNAMGWYRQAPGKERELVAAISKSGGRTYYADSVKGRFTISRDNAKNTVYLQMNSLKPEDTAVYYCAAYDGYYEFDYWGQGTQVTVSS | low polyreactivity
40 | QVQLVESGGGLVQAGGSLRLSCAASGNIYRYYVMGWYRQAPGKEREFVAAITSSGGSTYYADSVKGRFTISRDNAKNTVYLQMNSLKPEDTAVFYCAKDYGDPGWAEYDYWGQGTQVTVSS | low polyreactivity
41 | QVQLVESGGGLVQAGGSLRLSCAASGNMFGYYAMGWYRQAPGKERELVARITSGGTTNYADSVKGRFTISRDNAKNTVYLQMNRLKPEDTAVYYCNKDWRRYWLRGDYWGQGTQVTVSS | low polyreactivity
